From the supplement of paper PMC11246515
± gives the standard deviation of the averaged measurements.

Test: total protein half-life in vivo (active degradation + dilution); higher = more stable protein
[1] = E. coli NCM3722 delta-clpP, growth: N-lim chemostat, doubling time 6 h
[2] = E. coli NCM3722 delta-hslV, growth: N-lim chemostat, doubling time 6 h
[3] = E. coli NCM3722 delta-lon, growth: N-lim chemostat, doubling time 6 h
[4] = E. coli NCM3722 delta-smpB, growth: N-lim chemostat, doubling time 6 h
[5] = wild type E. coli NCM3722, growth: C-lim chemostat, doubling time 3 h
[6] = wild type E. coli NCM3722, growth: C-lim chemostat, doubling time 6 h
[7] = wild type E. coli NCM3722, growth: C-lim chemostat, doubling time 12 h
[8] = wild type E. coli NCM3722, growth: N-lim chemostat, doubling time 6 h
[9] = wild type E. coli NCM3722, growth: N-lim chemostat, doubling time 12 h
[10] = wild type E. coli NCM3722, growth: P-lim chemostat, doubling time 6 h
[11] = wild type E. coli NCM3722, growth: P-lim chemostat, doubling time 12 h
[12] = E. coli NCM3722 delta-clpP delta-lon delta-hslV, growth: N-lim chemostat, doubling time 6 h

Sequence: MARARGRGRRDLKSEINIVPLLDVLLVLLLIFMATAPIITQSVEVDLPDATESQAVSSNDNPPVIVEVSGIGQYTVVVEKDRLERLPPEQVVAEVSSRFKANPKTVFLIGGAKDVPYDEIIKALNLLHSAGVKSVGLMTQPI [P0ABV6]
- total protein half-life in vivo [1]: 5.42 ± 0.13 h
- total protein half-life in vivo [2]: 6.44 ± 0.99 h
- total protein half-life in vivo [3]: 5.7 ± 0.25 h
- total protein half-life in vivo [4]: 5.74 ± 0.59 h
- total protein half-life in vivo [5]: 3.106 ± 0.028 h
- total protein half-life in vivo [6]: 5.686 ± 0.01 h
- total protein half-life in vivo [7]: 11.9 ± 0.7 h
- total protein half-life in vivo [8]: 5.73 ± 0.26 h
- total protein half-life in vivo [9]: 12.6 ± 0.73 h
- total protein half-life in vivo [10]: 5.45 ± 0.66 h
- total protein half-life in vivo [11]: 11.81 ± 0.036 h

Sequence: MARAVHRSGLVALGIATALMASCAFAAKDVVVAVGSNFTTLDPYDANDTLSQAVAKSFYQGLFGLDKEMKLKNVLAESYTVSDDGITYTVKLREGIKFQDGTDFNAAAVKANLDRASDPANHLKRYNLYKNIAKTEAIDPTTVKITLKQPFSAFINILAHPATAMISPAALEKYGKEIGFYPVGTGPYELDTWNQTDFVKVKKFAGYWQPGLPKLDSITWRPVADNNTRAAMLQTGEAQFAFPIPYEQATLLEKNKNIELMASPSIMQRYISMNVTQKPFDNPKVREALNYAINRPALVKVAFAGYATPATGVVPPSIAYAQSYKPWPYDPVKARELLKEAGYPNGFSTTLWSSHNHSTAQKVLQFTQQQLAQVGIKAQVTAMDAGQRAAEVEGKGQKESGVRMFYTGWSASTGEADWALSPLFASQNWPPTLFNTAFYSNKQVDDFLAQALKTNDPAEKTRLYKAAQDIIWQESPWIPLVVEKLVSAHSKNLTGFWIMPDTGFSFEDADLQ
- total protein half-life in vivo [12]: 5.029 ± 0.012 h
- total protein half-life in vivo [1]: 5.36 ± 0.42 h
- total protein half-life in vivo [2]: 6.42 ± 0.61 h
- total protein half-life in vivo [3]: 6.43 ± 0.089 h
- total protein half-life in vivo [4]: 5.72 ± 0.071 h
- total protein half-life in vivo [5]: 3.21 ± 0.061 h
- total protein half-life in vivo [6]: 6.6 ± 0.26 h
- total protein half-life in vivo [7]: 13 ± 0.86 h
- total protein half-life in vivo [8]: 6.04 ± 0.39 h
- total protein half-life in vivo [9]: 13.2 ± 0.28 h
- total protein half-life in vivo [10]: 5.85 ± 0.27 h
- total protein half-life in vivo [11]: 13.3 ± 0.87 h

Sequence: MARIIVVTSGKGGVGKTTSSAAIATGLAQKGKKTVVIDFDIGLRNLDLIMGCERRVVYDFVNVIQGDATLNQALIKDKRTENLYILPASQTRDKDALTREGVAKVLDDLKAMDFEFIVCDSPAGIETGALMALYFADEAIITTNPEVSSVRDSDRILGILASKSRRAENGEEPIKEHLLLTRYNPGRVSRGDMLSMEDVLEILRIKLVGVIPEDQSVLRASNQGEPVILDINADAGKAYADTVERLLGEERPFRFIEEEKKGFLKRLFGG [P0AEZ3]
- total protein half-life in vivo [12]: 5.31 ± 0.21 h
- total protein half-life in vivo [1]: 5.22 ± 0.21 h
- total protein half-life in vivo [2]: 5.442 ± 0.017 h
- total protein half-life in vivo [3]: 5.66 ± 0.15 h
- total protein half-life in vivo [4]: 4.87 ± 0.023 h
- total protein half-life in vivo [5]: 2.94 ± 0.16 h
- total protein half-life in vivo [6]: 5.54 ± 0.16 h
- total protein half-life in vivo [7]: 10.1 ± 0.8 h
- total protein half-life in vivo [8]: 5.17 ± 0.36 h
- total protein half-life in vivo [9]: 9.98 ± 0.53 h
- total protein half-life in vivo [10]: 4.93 ± 0.2 h
- total protein half-life in vivo [11]: 9.29 ± 0.22 h

Sequence: MARINRISITLCALLFTTLPLTPMAHASKQARESSATTHITKKADKKKSTATTKKTQKTAKKAASKSTTKSKTASSVKKSSITASKNAKTRSKHAVNKTASASFTEKCTKRKGYKSHCVKVKNAASGTLADAHKAKVQKATKVAMNKLMQQIGKPYRWGGSSPRTGFDCSGLVYYAYKDLVKIRIPRTANEMYHLRDAAPIERSELKNGDLVFFRTQGRGTADHVGVYVGNGKFIQSPRTGQEIQITSLSEDYWQRHYVGARRVMTPKTLR
- total protein half-life in vivo [12]: > 8 h
- total protein half-life in vivo [2]: 3.67 h
- total protein half-life in vivo [3]: 2.15 h
- total protein half-life in vivo [5]: 2.57 ± 0.19 h
- total protein half-life in vivo [6]: 5.435 ± 0.027 h
- total protein half-life in vivo [7]: 9.36 ± 4.5 h
- total protein half-life in vivo [8]: 2.63 ± 0.55 h
- total protein half-life in vivo [9]: 6.47 ± 1.8 h
- total protein half-life in vivo [10]: 3.69 ± 0.066 h
- total protein half-life in vivo [11]: 6.68 ± 0.86 h

Sequence: MARKTKPLTDTEIKAAKPKDADYQLYDGDGLTLLIKSSGSKLWQFRYYRPLTKQRTKQSFGAYPAVSLSDARKLRAESKVLLAKDIDPQEHQKEQVRNSQEAKTNTFLLVAERWWNVKKTSVTEDYADDIWRSLERDIFPAIGDISITEIKAHTLVKAVQPVQARGALETVRRLCQRINEVMIYAQNTGLIDAVPSVNIGKAFEKPQKKNMPSIRPDQLPQLMHTMRTASISMSTRCLFMWQLLTITRPAEAAEARWDEIDFNASEWKIPAARMKMNRDHTVPLSDGALAILEMMKPLSGGREFIFPSRIKPNQPMNSQTVNAALKRAGLGGVLVSHGLRSIASTALNEEGFPPDVIEAALAHVDKNEVRRAYNRSDYLEQRRPMMQWWADLVKAADSGSIVLTHLSKIRLVG
- total protein half-life in vivo [12]: 5.38 ± 0.81 h
- total protein half-life in vivo [2]: 0.734 ± 0.064 h
- total protein half-life in vivo [3]: 1.362 ± 0.0065 h
- total protein half-life in vivo [4]: 0.777 ± 0.0083 h
- total protein half-life in vivo [5]: 1.16 ± 0.22 h
- total protein half-life in vivo [6]: 1.13 ± 0.079 h
- total protein half-life in vivo [7]: 0.594 h
- total protein half-life in vivo [8]: 1.7 ± 0.26 h
- total protein half-life in vivo [9]: 0.847 h
- total protein half-life in vivo [10]: 0.572 h
- total protein half-life in vivo [11]: 1.64 ± 0.32 h

Sequence: MARKTKQEAQETRQHILDVALRLFSQQGVSSTSLGEIAKAAGVTRGAIYWHFKDKSDLFSEIWELSESNIGELELEYQAKFPGDPLSVLREILIHVLESTVTEERRRLLMEIIFHKCEFVGEMAVVQQAQRNLCLESYDRIEQTLKHCIEAKMLPADLMTRRAAIIMRGYISGLMENWLFAPQSFDLKKEARDYVAILLEMYLLCPTLRNPATNE [P0ACS9]
- total protein half-life in vivo [12]: 5.34 ± 0.52 h
- total protein half-life in vivo [2]: 6.2 h
- total protein half-life in vivo [3]: 5.24 h
- total protein half-life in vivo [4]: 5.82 ± 1.9 h
- total protein half-life in vivo [6]: 5.61 h
- total protein half-life in vivo [7]: 10.8 ± 0.63 h
- total protein half-life in vivo [8]: 5.74 h
- total protein half-life in vivo [9]: 11.6 h
- total protein half-life in vivo [10]: 4.88 h
- total protein half-life in vivo [11]: 7.48 h

Sequence: MARTKLKFRLHRAVIVLFCLALLVALMQGASWFSQNHQRQRNPQLEELARTLARQVTLNVAPLMRTDSPDEKRIQAILDQLTDESRILDAGVYDEQGDLIARSGESVEVRDRLALDGKKAGGYFNQQIVEPIAGKNGPLGYLRLTLDTHTLATEAQQVDNTTNILRLMLLLSLAIGVVLTRTLLQGKRTRWQQSPFLLTASKPVPEEEESEKKE [P0AGC7]
- total protein half-life in vivo [12]: 4.45 ± 0.17 h
- total protein half-life in vivo [1]: 4.93 ± 0.059 h
- total protein half-life in vivo [2]: 4.9 ± 1 h
- total protein half-life in vivo [3]: 4.57 ± 0.81 h
- total protein half-life in vivo [4]: 4.34 ± 0.23 h
- total protein half-life in vivo [5]: 3.05 ± 0.13 h
- total protein half-life in vivo [6]: 6.19 ± 1.3 h
- total protein half-life in vivo [8]: 3.69 ± 0.5 h
- total protein half-life in vivo [9]: 6.81 ± 0.24 h
- total protein half-life in vivo [10]: 5.23 ± 0.067 h
- total protein half-life in vivo [11]: 9.34 ± 0.24 h
